Here are results for 150 variants from paper PMC11480844 (2024).

The chains are these.
B1: H2-Kb / Ed40 (parent complex)
chain 1: GDSVTQTEGPVTVSESESLIINCTYSATSIAYPNLFWYVRYPGEGLQLLLKVITAGQKGSSRGFEATYNKETTSFHLQKASVQESDSAVYYCALGDGYTGNYKYVFGAGTRLKVIA
chain 2: DSGVVQSPRHIIKEKGGRSVLTCIPISGHSNVVWYQQTLGKELKFLIQHYEKVERDKGFLPSRFSVQQFDDYHSEMNMSALELEDSAMYFCASSGASAETLYFGSGTRLTVL
chain 3: not shown
chain 4: IQKTPQIQVYSRHPPENGKPNILNCYVTQFHPPHIEIQMLKNGKKIPKVEMSDMSFSKDWSFYILAHTEFTPTETDTYACRVKHDSMAEPKTVYWDRDM
chain 5: SIINFEKL
B2: H2-Kb / Ed16-30 (parent complex)
chain 1: GEQVEQRPPHLSVREGDSAVIICTYTDPNSYYFFWYKQEPGAGLQLLMKVFSSTEINEGQGFTVLLNKKDKQLSLNLTAAHPGDSAVYFCAVSEPSSGQKLVFGQGTILKVYL
chain 2: EAAVTQSPRNKVAVTGGKVTLSCNQTNNHNNMYWYRQDTGHGLRLIHYSYGAGSTEKGDIPDGYKASRPSQENFSLILELATPSQTSVYFCAGRDTGQLYFGEGSKLTVL
chain 3: not shown
chain 4: B1 chain 4
chain 5: SIINFEKL
Note: test concentration or dose not given here.

The variants in one test derive from B1. Nature of the test: % of reporter cells activated (NFAT-GFP), raw.
For chain 5 F5L, the ratio to parent is 0.906. Still for that read-out and setting: the value for chain 5 F5Q was 0.601. Regarding chain 5 F5D, the ratio to parent amounted to 0.49. Turning to chain 5 F5R, the ratio to parent is 0.938. Take chain 5 F5E: the ratio to parent came out at 0.52. Still for that read-out and setting: the value for chain 5 F5S was 1.09; that for chain 5 F5N was 0.891. With chain 5 F5K, the ratio to parent was 0.685. Consider chain 5 F5W, for which the ratio to parent stood at 1.02.

In the case of chain 5 F5I, the ratio to parent is 0.615. On the same count and under the same terms, the value for chain 5 L8H was 0.822; that for chain 5 L8Y was 0.96. On to chain 5 L8Q, for which the ratio to parent amounted to 0.716. In the case of chain 5 L8V, the ratio to parent came out at 0.831. Regarding chain 5 L8D, the ratio to parent was determined as 0.546. As for chain 5 L8F, the ratio to parent is 0.993. On to chain 5 L8T, for which the ratio to parent stood at 0.885. Take chain 5 L8E: the ratio to parent is 0.612. In the case of chain 5 L8G, the ratio to parent was 0.595. With chain 5 L8M, the ratio to parent was 0.897. chain 5 L8P: the ratio to parent was 0.651.

With chain 5 E6H, the ratio to parent was 0.172.

As to chain 5 E6Q, the ratio to parent was 0.527.

As for chain 5 E6P, the ratio to parent came out at 0.164. As for chain 5 E6F, the ratio to parent amounted to 0.0664.

For the variant chain 5 E6G, the ratio to parent amounted to 0.464.

As to chain 5 E6A, the ratio to parent stood at 0.445. Take chain 5 E6W: the ratio to parent was 0.0475. Turning to chain 5 E6N, the ratio to parent is 0.287. Consider chain 5 E6C, for which the ratio to parent amounted to 0.0158. Still for that read-out and setting: in the case of chain 5 E6R it was 0.675; in that of chain 5 E6I, 0.00278; in that of chain 5 K7M, 0.0429. Regarding chain 5 K7S, the ratio to parent turned out to be 0.648.

As for chain 5 K7D, the ratio to parent stood at 0.0102. Same read-out and setting: the value for chain 5 K7R was 0.622; that for chain 5 K7V was 0.224.

Turning to chain 5 K7I, the ratio to parent was found to be 0.165. Take chain 5 K7W: the ratio to parent was 0.644.

Consider chain 5 K7P, for which the ratio to parent worked out at 0.296. Same read-out and setting: in the case of chain 5 K7T it was 0.224.

In the case of chain 5 K7L, the ratio to parent was determined as 0.192. As to chain 5 K7A, the ratio to parent was 0.343.

Regarding chain 5 K7F, the ratio to parent stood at 0.0192. chain 5 K7E: the ratio to parent came out at 0.00653.

In the case of chain 5 S1C, the ratio to parent was 0.615. For chain 5 S1P, the ratio to parent came to 0.576. On the same count and under the same terms, the value for chain 5 S1N was 0.31. On the same count and under the same terms, in the case of chain 5 S1L it was 0.466; in that of chain 5 S1V, 0.738.

For the variant chain 5 S1G, the ratio to parent was 1.

As to chain 5 S1F, the ratio to parent turned out to be 0.765. Turning to chain 5 S1K, the ratio to parent came out at 0.399.

chain 5 S1W: the ratio to parent amounted to 0.335.

On to chain 5 S1Q, for which the ratio to parent came to 0.681. With chain 5 S1E, the ratio to parent came to 0.432. On the same count and under the same terms, the value for chain 5 S1Y was 0.977. Still for that read-out and setting: the value for chain 5 S1D was 0.892; that for chain 5 I2T was 1.18. Turning to chain 5 I2L, the ratio to parent was 1.14.

Take chain 5 I2N: the ratio to parent worked out at 0.757. On the same count and under the same terms, the value for chain 5 I2R was 0.958. With chain 5 I2Q, the ratio to parent was found to be 0.697. On to chain 5 I2S, for which the ratio to parent was found to be 1.1.

For chain 5 I2A, the ratio to parent came out at 1.13. As to chain 5 I2G, the ratio to parent stood at 0.922. In the case of chain 5 I2E, the ratio to parent turned out to be 0.869. Turning to chain 5 I2V, the ratio to parent worked out at 1.15. For chain 5 N4C, the ratio to parent came to 0.0253.

For chain 5 N4W, the ratio to parent stood at 0.00287. Take chain 5 N4F: the ratio to parent came out at 0.00938. For the variant chain 5 N4H, the ratio to parent came to 0.0593. Consider chain 5 N4Y, for which the ratio to parent worked out at 0.0157.

As to chain 5 N4D, the ratio to parent came to 0.00665. With chain 5 N4R, the ratio to parent amounted to 0.362. The same measure, in the same setting: in the case of chain 5 N4A it was 0.0166; in that of chain 5 N4P, 0.00321. As for chain 5 N4M, the ratio to parent amounted to 0.00232. The same measure, in the same setting: in the case of chain 5 N4G it was 0.0118. Take chain 5 N4L: the ratio to parent worked out at 0.086.

Turning to chain 5 N4I, the ratio to parent stood at 0.02. Same read-out and setting: the value for chain 5 N4S was 0.0147. Take chain 5 N4T: the ratio to parent worked out at 0.00333. For the variant chain 5 N4E, the ratio to parent was 0.00154. The same measure, in the same setting: in the case of chain 5 I3Q it was 0.329. In the case of chain 5 I3G, the ratio to parent was 0.319. For the variant chain 5 I3V, the ratio to parent came to 0.69. Take chain 5 I3Y: the ratio to parent turned out to be 0.762.

As to chain 5 I3R, the ratio to parent is 0.207.

chain 5 I3C: the ratio to parent came out at 0.523.

For chain 5 I3D, the ratio to parent was 0.166.

As to chain 5 I3F, the ratio to parent turned out to be 0.641. Same read-out and setting: the value for chain 5 I3L was 0.895.

On to chain 5 I3W, for which the ratio to parent is 0.488. For the variant chain 5 I3M, the ratio to parent stood at 0.462. The same measure, in the same setting: in the case of chain 5 I3T it was 0.423; in that of chain 5 I3N, 0.534.

In a further test the parent is B2. Nature of the test: % of reporter cells activated (NFAT-GFP), raw.
Regarding chain 5 F5C, the ratio to parent was 1.23. In the case of chain 5 F5E, the ratio to parent is 0.752. Turning to chain 5 F5L, the ratio to parent was 1.21. On the same count and under the same terms, in the case of chain 5 S1Y it was 0.55; in that of chain 5 S1E, 0.0535; in that of chain 5 S1L, 0.313. For the variant chain 5 S1P, the ratio to parent turned out to be 0.0976. As for chain 5 S1C, the ratio to parent is 0.186. Turning to chain 5 S1M, the ratio to parent was found to be 0.632. Take chain 5 S1A: the ratio to parent was determined as 0.631.

As for chain 5 S1F, the ratio to parent came out at 0.025.

With chain 5 S1Q, the ratio to parent is 0.323. For the variant chain 5 I3P, the ratio to parent was 0.64.

With chain 5 I3N, the ratio to parent came to 0.507.

Turning to chain 5 I3K, the ratio to parent was 0.779. For the variant chain 5 I3V, the ratio to parent was 1.11. As to chain 5 I3H, the ratio to parent was 0.558. Take chain 5 I3M: the ratio to parent is 0.425. Same read-out and setting: the value for chain 5 N4T was 0.0259; that for chain 5 N4C was 0.0363; that for chain 5 N4H was 0.165. chain 5 N4A: the ratio to parent is 0.0158.

chain 5 N4K: the ratio to parent stood at 0.0853. Consider chain 5 N4R, for which the ratio to parent was 0.318. Same read-out and setting: the value for chain 5 N4M was 0.0762; that for chain 5 N4S was 0.0223. Regarding chain 5 E6M, the ratio to parent was 0.399.

Regarding chain 5 E6S, the ratio to parent came to 0.609. In the case of chain 5 E6A, the ratio to parent was found to be 0.508. Consider chain 5 E6I, for which the ratio to parent is 0.00701. On the same count and under the same terms, in the case of chain 5 E6L it was 0.387; in that of chain 5 L8Q, 1.13; in that of chain 5 L8S, 1.04. Take chain 5 L8A: the ratio to parent is 1.04.

Regarding chain 5 L8H, the ratio to parent worked out at 1.06. Regarding chain 5 L8M, the ratio to parent turned out to be 1.08.

For the variant chain 5 L8G, the ratio to parent was found to be 0.904. For the variant chain 5 L8K, the ratio to parent worked out at 1. The same measure, in the same setting: the value for chain 5 L8N was 0.798; that for chain 5 I2S was 1.19; that for chain 5 I2A was 1.2. Still for that read-out and setting: the value for chain 5 I2K was 0.978; that for chain 5 I2P was 1.06; that for chain 5 I2Y was 0.774. As to chain 5 I2N, the ratio to parent came to 0.951.

As to chain 5 I2E, the ratio to parent was found to be 1.21. As to chain 5 K7V, the ratio to parent came out at 0.687. In the case of chain 5 K7D, the ratio to parent is 0.162.

Turning to chain 5 K7G, the ratio to parent turned out to be 0.381.

Take chain 5 K7W: the ratio to parent amounted to 0.74. Consider chain 5 K7E, for which the ratio to parent came out at 0.0275. As to chain 5 K7I, the ratio to parent came to 0.61. As to chain 5 K7T, the ratio to parent is 0.716.
